Data: patent publication US20100310573A1 (Kyowa Kirin, published 2010)
Like-named read-outs stand apart in the source and are kept apart here.

B1: anti-CD4 chimeric antibody KM4049 (antibody, V domains shown)
VH: QVQLKESGPGLVQPSQTLSLTCTVSGSSLTSNSVSWIRQPPGKGLEWMGVIWSNGDADYNSAIKSRLSISRDTSKSQVFLKMNSLQTEDTAMYFCASPYYGYYFPFDYWGQGVMVTVSS
VL: DIQMTQSPASLSASLEEIVTITCKASQAIDAYLSWYQQKPGKSPQLLIYDATSLADGVPSRFSGSRSGTQYSLKISRPQVDDSGIYYCLQSYSTPFTFGSGTKLEIK
notes: Variable regions of rat KM4069 joined to the '113F type' human IgG1/IgG3 heavy chain constant region (US2007/0148165) and a human kappa constant region; Expressed in FUT8 knockout CHO cells (0% fucose)
B2: anti-CD4 chimeric antibody KM4046 (antibody, V domains shown)
VH: EVQLEESGGGLVQPGRSLKLSCLASGFTFSNYGMNWIRQAPGKGLEWVASISGSSTYIYYADTVKGRFTISRENAENTLYLQMTSLRSEDTALYYCAREGSSTDRYYEVSFAYWGQGTLVTVSS
VL: DVVLTQTPVSLSVTLGDQASISCRSSQSLEYSDGYTYLEWYLQKPGQSPQVLIYGVSNRFSGVPDRFIGSGSGTDFTLKISRVEPEDLGVYYCFQATHDPYTFGAGTRLELK
notes: Variable regions of rat KM4066 joined to the '113F type' human IgG1/IgG3 heavy chain constant region (US2007/0148165) and a human kappa constant region; Expressed in FUT8 knockout CHO cells (0% fucose)
B3: anti-CD4 chimeric antibody KM4047 (antibody, V domains shown)
VH: QVKLLQSGAALVKPGASVKMSCKASGYTFTDYWVHWVKQSHGKSLEWIGEIYPNNNTTNFNEKFKGKATLTVDKFTSTAYMELSRLTSEDSAIYYCTRGTVYYGLGYFDHWGQGVMVTVSS
VL: DIRMTQSPASLSASLGETVNIECLASEDVYSDLAWYQQKPGKSPQLLIYNANNLQSGVPSRFSGSGSGTRYSLKINSLQSEDVATYFCQQYNNYPPYTFGAGTKLELK
notes: Variable regions of rat KM4067 joined to the '113F type' human IgG1/IgG3 heavy chain constant region (US2007/0148165) and a human kappa constant region; Expressed in FUT8 knockout CHO cells (0% fucose)
B4: anti-CD4 chimeric antibody KM4048 (antibody, V domains shown)
VH: QVQLKESGPGLVQPSQTLSLTCTVSGLSLTSNSVSWIRQPPGKGLEWMGIIWSNGDTDYNSAIKSRLSISRDTSKSQVFLKMNSLQTEDTAMYFCANPYYGYNFPFDYWGQGVMVTVSS
VL: DIQMTQSPASLSASLEEIVTITCKASQGIDNYLSWYQQKPGKSPQLLIYDATSLADGVPSRFSGSRSGTQYSLKISRPQVDDSGIYYCLQSYSTPFTFGSGTKLEIK
notes: Variable regions of rat KM4068 joined to the '113F type' human IgG1/IgG3 heavy chain constant region (US2007/0148165) and a human kappa constant region; Expressed in FUT8 knockout CHO cells (0% fucose)
B5: anti-CD4 human antibody 6G5-1 (antibody, V domains shown)
VH: QVQLQQWGAGLLKPSETLSLTCAVYGGSFSGYYWSWIRQPPGKGLEWIGEINHSGSTNYNPSLKSRVTISVDTSKNQFSLKLSSVTAADTAVYYCARVINWFDPWGQGTLVTVSS
VL: DIQMTQSPSSVSASVGDRVTITCRASQDISSWLAWYQHKPGKAPKLLIYAASSLQSGVPSRFSGSGSGTDFTLTISSLQPEDFATYYCQQANSFPYTFGQGTKLEIKR

What was measured:
[1] = molecular target: T1, recombinant human CD4 (catalogue number: 514-CD/CF, manufactured by R&D Systems) (human, UniProt P01730 26-390); assay: SPR, Biacore T100; antibody captured on anti-human IgG chip, recombinant human CD4 flowed; 1:1 binding model
T1 construct: Bought protein (R&D Systems); also called recombinant CD4
Experimental: (§1) In order to kinetically analyze the binding activity of anti-CD4 chimeric antibodies KM4045 to KM4049, 6G5-1 and 6G5-P to recombinant human CD4, the binding activity was measured by surface plasmon resonance method (SPR). All of the following manipulations were carried out using a Biacore T100 (manufactured by GE Healthcare Bio-Sciences). The anti-human IgG antibody was immobilized on a CM5 sensor chip (manufactured by GE Healthcare Bio-Sciences) by an amine coupling method using a Human Antibody Capture Kit (manufactured by GE Healthcare Bio-Sciences) in accordance with the protocols attached thereto. An assay sample (anti-CD4 chimeric antibodies KM4045 to KM4049) was added to be captured on the anti-human IgG antibody-immobilized chip to give 100 RU (resonance unit). Thereafter, the recombinant human CD4 (manufactured by R&D) diluted from 2500 ng/mL in five steps was allowed to run at a flow rate of 30 μL/min onto the chip, and the sensorgram corresponding to each concentration was obtained. The analysis was carried out in the 1:1 binding model using an analysis software attached to the apparatus, Biacore T100 Evaluation software (manufactured by Biacore), thereby calculating an association rate constant ka and a dissociation rate constant kd of respective antibodies for human CD4.
As a result, an association rate constant ka, a dissociation rate constant kd, and a dissociation constant KD (kd/ka) of individual antibodies thus obtained are given in Table 5.

[2] = molecular target: T1, recombinant human CD4 (catalogue …); assay: as above; remark: listed apart in the source
Experimental: as §1
The measurement of a binding activity was carried out according to the method described in Example 7(2). The association rate constant ka, the dissociation rate constant kd and the dissociation constant KD (kd/ka) of respective antibodies thus obtained are shown in Table 6.

Row | Kd [1] [nM] | koff [1] [s⁻¹] | kon [1] [M⁻¹ s⁻¹] | Kd [2] [nM] | koff [2] [s⁻¹] | kon [2] [M⁻¹ s⁻¹] | Binder
1 | 0.2 | 0.00116 | 5.77e+06 |  |  |  | B1
2 | 0.0614 | 5.12e-05 | 834000 |  |  |  | B2
3 | 0.369 | 0.000488 | 1.33e+06 |  |  |  | B3
4 | 0.651 | 0.00381 | 5.85e+06 |  |  |  | B4
5 | 1.46 | 0.000872 | 595000 | 1.54 | 0.000824 | 534000 | B5
